Experimental data published in doi:10.1101/2020.09.29.317933 (bioRxiv, 2020).

Legend:
[1] = molecular target: T1, His-tagged lamin A/C 1-300 fragment, wild type (human, UniProt P02545 1-300); assay: pull-down
T1 sequence (looked up): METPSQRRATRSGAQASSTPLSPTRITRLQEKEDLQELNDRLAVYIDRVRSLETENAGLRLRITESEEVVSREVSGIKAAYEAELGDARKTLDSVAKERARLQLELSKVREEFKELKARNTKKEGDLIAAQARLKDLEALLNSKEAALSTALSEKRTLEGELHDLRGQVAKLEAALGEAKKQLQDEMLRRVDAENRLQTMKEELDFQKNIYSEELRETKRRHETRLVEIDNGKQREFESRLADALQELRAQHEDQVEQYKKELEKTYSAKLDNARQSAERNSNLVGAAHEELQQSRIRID

[2] = molecular target: T2, His-tagged lamin A/C 1-300 fragment, Y45C (human), P02545; assay: ITC; settings: remark: other sources report otherwise
T2 chain: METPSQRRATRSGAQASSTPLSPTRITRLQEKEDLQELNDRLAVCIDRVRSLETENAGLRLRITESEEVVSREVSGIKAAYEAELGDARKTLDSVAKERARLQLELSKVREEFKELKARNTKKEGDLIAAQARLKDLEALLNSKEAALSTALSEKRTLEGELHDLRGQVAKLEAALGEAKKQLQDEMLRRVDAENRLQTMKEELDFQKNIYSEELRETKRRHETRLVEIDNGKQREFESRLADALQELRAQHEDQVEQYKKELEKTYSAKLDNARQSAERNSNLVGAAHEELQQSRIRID

[3] = molecular target: T3, His-tagged lamin A/C 1-300 fragment, L59R (human, UniProt P02545 1-300, L59R); assay: ITC
T3 sequence (looked up): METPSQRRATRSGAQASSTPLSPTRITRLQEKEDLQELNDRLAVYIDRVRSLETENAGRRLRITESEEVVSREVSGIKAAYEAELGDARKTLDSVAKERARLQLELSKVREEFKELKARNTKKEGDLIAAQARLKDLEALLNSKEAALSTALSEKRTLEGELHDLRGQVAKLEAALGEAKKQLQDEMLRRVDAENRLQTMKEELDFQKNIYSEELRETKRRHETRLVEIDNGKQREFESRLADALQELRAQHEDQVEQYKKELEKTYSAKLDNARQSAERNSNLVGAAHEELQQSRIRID

[4] = molecular target: T4, His-tagged lamin A/C 1-300 fragment, I63S (human, UniProt P02545 1-300, I63S); assay: ITC
T4 sequence (looked up): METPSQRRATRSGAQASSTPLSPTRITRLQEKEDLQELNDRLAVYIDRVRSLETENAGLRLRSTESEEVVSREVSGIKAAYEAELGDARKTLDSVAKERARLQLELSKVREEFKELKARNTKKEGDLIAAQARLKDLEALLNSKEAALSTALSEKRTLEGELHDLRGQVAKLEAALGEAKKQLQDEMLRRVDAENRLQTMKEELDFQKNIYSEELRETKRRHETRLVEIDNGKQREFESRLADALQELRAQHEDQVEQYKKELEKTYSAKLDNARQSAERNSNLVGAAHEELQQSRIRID

[5] = molecular target: T5, His-tagged lamin A/C 1-300 fragment, L35V (human, UniProt P02545 1-300, L35V); assay: ITC
T5 sequence (looked up): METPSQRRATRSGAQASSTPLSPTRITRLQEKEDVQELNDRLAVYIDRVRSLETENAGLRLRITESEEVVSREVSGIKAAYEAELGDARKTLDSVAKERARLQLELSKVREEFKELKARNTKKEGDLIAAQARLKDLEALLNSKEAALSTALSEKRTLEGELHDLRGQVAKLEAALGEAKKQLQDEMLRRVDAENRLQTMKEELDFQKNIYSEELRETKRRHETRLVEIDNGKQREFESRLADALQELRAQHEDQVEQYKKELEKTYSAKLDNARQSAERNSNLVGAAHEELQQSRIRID

binding result [1]: binds | fold decrease of the eA22 interaction against wild type (from KD) [2]: 5 fold | fold increase of the eA22 interaction against wild type (from KD) [3]: ~56 fold | fold increase of the eA22 interaction against wild type (from KD) [4]: ~2 fold | fold decrease of the eA22 interaction against wild type (from KD) [5]: ~2 fold
B1: lamin A/C 250-400 fragment (C-terminal part of coil 2), wild type, tag-free (domain or fragment, human, UniProt P02545 250-400, looked up)
chain: AQHEDQVEQYKKELEKTYSAKLDNARQSAERNSNLVGAAHEELQQSRIRIDSLSAQLSQLQKQLAAKEAKLRDLEDSLARERDTSRRLLAEKEREMAEMRARMQQQLDEYQELLDIKLALDMEIHAYRKLLEGEEERLRLSPSPTSQRSRG
